Assays:
MMP-2 = experiment: cell-based or functional assay
MMP-9 = experiment: cell-based or functional assay

decomposition-inhibition rate (type V collagen degradation, SDS-PAGE/western blot densitometry) (MMP-2): 90%
decomposition-inhibition rate (type V collagen degradation, SDS-PAGE/western blot densitometry) (MMP-9): 90%
Substance: shark cartilage extract obtained in Section (1) of Example 1 (water extract of blue shark cartilage, ethanol precipitate)
